Assay results reported in the supplement of paper PMC10567573.

B1: EIF5 (parent)
chain: KQTIGNSCKACGYRGMLDTHHKLC

Variants of: B1
Assay: protein stability index of a GFP-peptide fusion (GPS, HEK-293T) (PSI 1-6); higher = more stable
Details: c terminus: a fixed tail appended
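Note: lentivirally expressed fusions sorted by FACS into six bins by GFP to DsRed ratio, PSI derived from sequencing read proportions per bin multiplied by bin number.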

Variant	protein stability index
PQTIGNSCKACGYRGMLDTHHKLC [K1P]	3.6
YQTIGNSCKACGYRGMLDTHHKLC [K1Y]	2.55
IQTIGNSCKACGYRGMLDTHHKLC [K1I]	2.04
HQTIGNSCKACGYRGMLDTHHKLC [K1H]	2.95
CQTIGNSCKACGYRGMLDTHHKLC [K1C]	2.97
TQTIGNSCKACGYRGMLDTHHKLC [K1T]	3.48
KQTDGNSCKACGYRGMLDTHHKLC [I4D]	3.95
KQTCGNSCKACGYRGMLDTHHKLC [I4C]	3.24
KQTGGNSCKACGYRGMLDTHHKLC [I4G]	3.56
KQTPGNSCKACGYRGMLDTHHKLC [I4P]	3.44
KQTWGNSCKACGYRGMLDTHHKLC [I4W]	2.82
KQTIGNSCKACGYRGMLDTTHKLC [H20T]	1.98
KQTIGNSCKACGYRGMLDTVHKLC [H20V]	2.15
KQTIGNSCKACGYRGMLDTIHKLC [H20I]	2.12
KQTIGNSCKACGYRGMLDTWHKLC [H20W]	2.48
KQTIGNSCKACGYRGMLDTSHKLC [H20S]	3.17
KQTIGNSCKACGYRGMLDTCHKLC [H20C]	2.75
KQTIGNSCKACGYRGKLDTHHKLC [M16K]	4.35
KQTIGNSCKACGYRGALDTHHKLC [M16A]	3.94
KQTIGNSCKACGYRGQLDTHHKLC [M16Q]	3.9
KQTIGNSCKACGYRGNLDTHHKLC [M16N]	3.63
KQTIGNSCKACGYRGYLDTHHKLC [M16Y]	2.98
KQTIGNSCKACGYRGCLDTHHKLC [M16C]	3.75
KQTIGNSCKALGYRGMLDTHHKLC [C11L]	2.28

Variant	protein stability index
KQTIGNSCKAQGYRGMLDTHHKLC [C11Q]	2.26
KQTIGNSCKADGYRGMLDTHHKLC [C11D]	1.7
KQTIGNSCKATGYRGMLDTHHKLC [C11T]	1.56
KQTIGNSCKAEGYRGMLDTHHKLC [C11E]	1.55
KQTIGNSCKAAGYRGMLDTHHKLC [C11A]	2.2
KQTIGNWCKACGYRGMLDTHHKLC [S7W]	2.64
KQTIGNDCKACGYRGMLDTHHKLC [S7D]	3.83
KQTIGNECKACGYRGMLDTHHKLC [S7E]	3.82
KQTIGNYCKACGYRGMLDTHHKLC [S7Y]	4.17
KQTIGNHCKACGYRGMLDTHHKLC [S7H]	4.11
KQTIGNPCKACGYRGMLDTHHKLC [S7P]	2.91
KQTIGNQCKACGYRGMLDTHHKLC [S7Q]	4.08
KQTIGNTCKACGYRGMLDTHHKLC [S7T]	3.29
KQTIGNNCKACGYRGMLDTHHKLC [S7N]	3.25
KQTIGNSCKACGYNGMLDTHHKLC [R14N]	3.04
KQTIGNSCKACGYLGMLDTHHKLC [R14L]	2.96
KQTIGNSCKACGYKGMLDTHHKLC [R14K]	3.89
KQTIGNSCKACGYVGMLDTHHKLC [R14V]	3.15
KQTIGNSCKACGYIGMLDTHHKLC [R14I]	3.33
KQTIGNSCKACGYCGMLDTHHKLC [R14C]	4.75
KQTIGNSCKACGYRGMLDGHHKLC [T19G]	4.05
KQTIGNSCKACGYRGMLDYHHKLC [T19Y]	2.71
KQTIGNSCKACGYRGMLDDHHKLC [T19D]	4.48
KQTIGNSCKACGYRGMLDAHHKLC [T19A]	3.29

Variant	protein stability index
KQTIGNSCKACGYRGMLDKHHKLC [T19K]	3.44
KQTIGNSCKACGYRGMLDWHHKLC [T19W]	1.87
KQTIGNSCKACGYRGMLDLHHKLC [T19L]	2.29
KQTIGNSCKACGYRGMLDVHHKLC [T19V]	2.49
KQTIGNSCKACGYRGMSDTHHKLC [L17S]	4.24
KQTIGNSCKACGYRGMHDTHHKLC [L17H]	3.63
KQTIGNSCKACGYRGMIDTHHKLC [L17I]	3.33
KQTIGNSCKACGYRGMKDTHHKLC [L17K]	3.44
KQTIGNSCKACGYRGMADTHHKLC [L17A]	3.66
KQTIGNSCKACGYRGMFDTHHKLC [L17F]	2.55
KCTIGNSCKACGYRGMLDTHHKLC [Q2C]	3.09
KRTIGNSCKACGYRGMLDTHHKLC [Q2R]	2.56
KPTIGNSCKACGYRGMLDTHHKLC [Q2P]	3.5
KKTIGNSCKACGYRGMLDTHHKLC [Q2K]	3.18
KWTIGNSCKACGYRGMLDTHHKLC [Q2W]	1.93
KQTIGNSCKACGYRRMLDTHHKLC [G15R]	2.72
KQTIGNSCKACGYRTMLDTHHKLC [G15T]	2.27
KQTIGNSCKACGYRFMLDTHHKLC [G15F]	2.24
KQTIGNSCKACGYRAMLDTHHKLC [G15A]	1.78
KQTIGNSCKACGYRQMLDTHHKLC [G15Q]	2.12
KQTIGNSCKACGYRNMLDTHHKLC [G15N]	2.45
KQTIGNSCKACGYRSMLDTHHKLC [G15S]	2.12
KQTIGNSCKACGYRIMLDTHHKLC [G15I]	2.26
KQTIGNSCKACGYRGMLCTHHKLC [D18C]	3.19

Variant	protein stability index
KQTIGNSCKACGYRGMLSTHHKLC [D18S]	3.22
KQTIGNSCKACGYRGMLHTHHKLC [D18H]	3.07
KQTIGNSCLACGYRGMLDTHHKLC [K9L]	2.6
KQTIGNSCGACGYRGMLDTHHKLC [K9G]	2.82
KQTIGNSCDACGYRGMLDTHHKLC [K9D]	3.87
KQTIGNSCPACGYRGMLDTHHKLC [K9P]	4.46
KQTIGNSCWACGYRGMLDTHHKLC [K9W]	2.89
KQTIGNSCMACGYRGMLDTHHKLC [K9M]	2.85
KQTIGNSCHACGYRGMLDTHHKLC [K9H]	3.08
KQTIGNSCKACGYRGMLDTHHKLF [C24F]	2.24
KQTIGNSCKACGYRGMLDTHHKLT [C24T]	1.57
KQTIGNSCKACGYRGMLDTHHKLP [C24P]	1.81
KQTIGNSCKACGYRGMLDTHHKLY [C24Y]	1.7
KQTIGNSCKACGYRGMLDTHHKLS [C24S]	1.89
KQEIGNSCKACGYRGMLDTHHKLC [T3E]	2.99
KQAIGNSCKACGYRGMLDTHHKLC [T3A]	3.04
KQVIGNSCKACGYRGMLDTHHKLC [T3V]	2.38
KQCIGNSCKACGYRGMLDTHHKLC [T3C]	2.92
KQQIGNSCKACGYRGMLDTHHKLC [T3Q]	3.06
KQWIGNSCKACGYRGMLDTHHKLC [T3W]	2.46
KQKIGNSCKACGYRGMLDTHHKLC [T3K]	3.4
KQHIGNSCKACGYRGMLDTHHKLC [T3H]	3.67
